The values below come from article PMC9959508.

The experiment addresses human angiotensin-converting enzyme 2 (human) (UniProt Q9BYF1).

Sequence of human angiotensin-converting enzyme 2 (human) (Q9BYF1 18-805): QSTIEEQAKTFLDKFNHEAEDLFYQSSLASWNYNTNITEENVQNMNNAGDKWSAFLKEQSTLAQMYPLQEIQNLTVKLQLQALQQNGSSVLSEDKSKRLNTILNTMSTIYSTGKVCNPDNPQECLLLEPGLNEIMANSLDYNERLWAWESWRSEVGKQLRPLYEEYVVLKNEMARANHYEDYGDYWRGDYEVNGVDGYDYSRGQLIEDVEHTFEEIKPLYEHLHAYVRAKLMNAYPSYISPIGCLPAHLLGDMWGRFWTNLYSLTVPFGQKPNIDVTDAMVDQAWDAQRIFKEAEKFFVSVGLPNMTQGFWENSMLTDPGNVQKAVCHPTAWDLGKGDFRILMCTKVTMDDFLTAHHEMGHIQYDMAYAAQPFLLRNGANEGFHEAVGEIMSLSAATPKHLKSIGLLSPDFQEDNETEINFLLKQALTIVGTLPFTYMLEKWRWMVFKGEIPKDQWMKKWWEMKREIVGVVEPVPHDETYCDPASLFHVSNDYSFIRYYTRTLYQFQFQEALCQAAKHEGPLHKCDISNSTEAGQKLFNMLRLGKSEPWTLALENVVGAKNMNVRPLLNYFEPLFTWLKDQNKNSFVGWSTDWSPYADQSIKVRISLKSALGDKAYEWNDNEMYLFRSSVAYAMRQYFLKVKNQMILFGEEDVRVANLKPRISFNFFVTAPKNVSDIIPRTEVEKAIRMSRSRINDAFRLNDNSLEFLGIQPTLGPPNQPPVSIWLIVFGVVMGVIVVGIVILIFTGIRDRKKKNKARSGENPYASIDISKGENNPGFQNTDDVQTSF
Sequence of wild-type human PCSK9, mature (prodomain non-covalently bound to the rest of the protein) (Q8NBP7 31-152): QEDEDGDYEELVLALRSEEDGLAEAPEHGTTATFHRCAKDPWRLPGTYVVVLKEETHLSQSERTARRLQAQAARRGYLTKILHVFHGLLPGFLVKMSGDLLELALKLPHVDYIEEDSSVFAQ
Sequence of wild-type human PCSK9, mature (prodomain non-covalently bound to the rest of the protein) (Q8NBP7 153-692): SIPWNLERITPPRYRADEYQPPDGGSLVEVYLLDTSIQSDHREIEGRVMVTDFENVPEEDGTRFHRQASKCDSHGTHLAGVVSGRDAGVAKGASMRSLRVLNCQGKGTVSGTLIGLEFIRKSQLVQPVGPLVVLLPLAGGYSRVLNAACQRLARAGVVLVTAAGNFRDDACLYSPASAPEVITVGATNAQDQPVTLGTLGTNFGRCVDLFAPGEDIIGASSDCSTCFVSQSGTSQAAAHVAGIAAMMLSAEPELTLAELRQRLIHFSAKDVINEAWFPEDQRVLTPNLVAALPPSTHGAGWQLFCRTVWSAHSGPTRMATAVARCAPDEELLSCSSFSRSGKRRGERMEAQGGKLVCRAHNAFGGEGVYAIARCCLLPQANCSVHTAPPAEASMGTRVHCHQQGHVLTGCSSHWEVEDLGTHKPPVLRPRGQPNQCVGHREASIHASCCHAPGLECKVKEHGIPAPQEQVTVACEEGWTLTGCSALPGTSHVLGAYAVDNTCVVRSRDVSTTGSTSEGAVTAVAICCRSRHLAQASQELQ
Sequence of PCSK9 lacking the M2 module of the CHRD (Q8NBP7 31-152): as the sequence (Q8NBP7 31-152) above
Sequence of PCSK9 lacking the M2 module of the CHRD (Q8NBP7 153-692): as the sequence (Q8NBP7 153-692) above
Sequence of PCSK9 lacking the CHRD (Q8NBP7 31-152): as the sequence (Q8NBP7 31-152) above
Sequence of PCSK9 lacking the CHRD (Q8NBP7 153-455): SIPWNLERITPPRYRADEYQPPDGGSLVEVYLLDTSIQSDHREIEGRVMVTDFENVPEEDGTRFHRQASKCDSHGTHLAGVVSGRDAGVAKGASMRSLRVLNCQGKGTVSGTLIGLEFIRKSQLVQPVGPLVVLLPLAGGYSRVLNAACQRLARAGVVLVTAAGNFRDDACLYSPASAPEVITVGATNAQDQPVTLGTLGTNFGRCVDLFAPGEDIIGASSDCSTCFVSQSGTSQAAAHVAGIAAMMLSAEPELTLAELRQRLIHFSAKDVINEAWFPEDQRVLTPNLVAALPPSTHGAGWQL

Regarding “PCSK9 lacking the CHRD (from UniProt Q8NBP7 31-152; Q8NBP7 153-455) (domain or fragment)”, the reduction of the level of ACE2 in HeLa cells after 18 h with conditioned medium (Western blot, relative to β-actin) was found to be 50%.
On the same count and under the same terms, the figure for “PCSK9 lacking the M2 module of the CHRD (from UniProt Q8NBP7 31-152; Q8NBP7 153-692) (natural protein)” is 50%; for “PCSK9-D374Y, gain-of-function natural variant (from UniProt Q8NBP7 31-152; Q8NBP7 153-692) (natural protein)” it is 90%.
For the substance “wild-type human PCSK9, mature (prodomain non-covalently bound to the rest of the protein) (from UniProt Q8NBP7 31-152; Q8NBP7 153-692) (natural protein)”, the reduction of the level of ACE2 in HeLa cells after 18 h with PCSK9 conditioned medium (Western blot, relative to β-actin) came out at 30%.
